Results on four molecules are retold here after CN117264062A (SHANGHAI HRAIN BIOTECHNOLOGY CO LTD, dated 2023).

T1: 重组人Trop2-avi-his抗原蛋白 (recombinant human Trop2 extracellular domain with C-terminal avi-tag and 6×his-tag) (human, UniProt P09758 27-274)
T1 construct: The protein was coated unbiotinylated on the ELISA plate; A form biotinylated at the avi-tag was used for panning and for CAR staining; also called 重组人Trop2蛋白; Trop2蛋白
T1 sequence: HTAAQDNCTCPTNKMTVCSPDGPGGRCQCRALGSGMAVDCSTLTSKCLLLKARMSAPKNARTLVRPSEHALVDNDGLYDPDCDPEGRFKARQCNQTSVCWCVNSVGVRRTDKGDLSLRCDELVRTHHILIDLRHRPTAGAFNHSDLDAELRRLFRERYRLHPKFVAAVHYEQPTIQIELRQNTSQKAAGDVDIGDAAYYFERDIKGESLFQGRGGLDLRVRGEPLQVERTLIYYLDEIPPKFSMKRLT

B1: L3G5 anti-human Trop2 scFv (scFv, V domains shown)
VH: QLQLQESGPGLLKPSETLSLICTVSGGSISSHYWSWIRQTPGKGLEWIGWIHSSGITNYNPSLMGRVTMSVDTSKNQFPLKVNSVTAADTAVYYCARGLRLTDDAFDIWGQGTMVTVSS
VL: QSALTQPASVSGSPGQSITISCTGTSSDVGGYNYVSWYQQHPGKAPKLMIHDVSNRPSGVSNRFFGSKSGNTASLTISGLQAEDEADYYCSSYTSSNTLAFGGGTKLTVL
notes: Tested as an scFv in a periplasmic extract of TG1 (pComb3sc phagemid) and detected with anti-HA HRP
B2: L2C9 anti-human Trop2 scFv (scFv, V domains shown)
VH: EVQLLESGGGVVQPGMSLRVSCAASGFTFSNYGMHWVRQAPGKGLEWVGIIWSDGTYTYYGDSVQGRFTISRDNSENTLHLQMNSLRAEDTAVYYCAKSLTPLGGSFRIGDWGQGTLVTVSS
VL: QSVLTQPPSVSGAPGQRVTISCTGSSSNIGAGYDVHWYQQLPGTAPKLLIYDNTNRPSGVPDRFSGSKSGTSASLAITGLQADDEGDYYCQSYDSRLNALVFGGGTKLTVL
notes: as for B1
B3: K2F5 anti-human Trop2 scFv (scFv, V domains shown)
VH: QVQLVQSGAEVKKPGESLTISCKSSGDNFSTNWIGWVRQMPGKGLEWMGIIYPGDSDSRYSPSFEGQVTISADKSISTAYLQWSSLKASDTAMYYCARYQGSTTPFDYWGQGTTVTVSS
VL: not shown
notes: as for B1
B4: L2C8 anti-human Trop2 scFv (scFv, V domains shown)
VH: EVQLVESGGALVQRGGSLRLSCSASGFSVRNNYITWVRQAPGKGLEWVAIVFPGGSSYHADSVKGRFTISRDLSKNSVYLEMNSLREDDTGVYFCARDSGSPLWRGHFQYWGQGTTVTVSS
VL: QSVLTQPPSVSGAPGQRVTISCTGSSANIGAGYDVHWYQQLPGTAPKLLIYDNNKRPSGIPDRFSGSNSGTSATLGITGLQTGDEADYYCGTWDTSLSAWVFGGGTRLTVL
notes: as for B1

The target in this test is T1, 重组人Trop2-avi-his抗原蛋白 (recombinant human …). Description: ELISA: recombinant human Trop2 coated at 100 ng/well, scFv periplasmic extract, anti-HA HRP detection, OD450. On the technique in general: ELISA stands for enzyme-linked immunosorbent assay.
Turning to B1, the binding result is “binds”.

For B2, the binding result is given as “binds”.

For the molecule B3, the binding result was “binds”.

Consider B4, for which the binding result is recorded as “binds”.
